Data published in patent US20200377560A1 (WYL SCIENCES, published 2020).

Target: T1, bovine serum albumin (bovine, UniProt P02769 25-607)
T1 construct: Control protein in the dot immunoblot; also called BSA
Test: dot immunoblot, BSA dotted as control
Source text: The fusion protein containing the full-length royalactin with a histidine tag (SEQ ID NO: 2), which was confirmed to have biological activity in Example 1, was produced in bacteria and purified. This protein was used to generate monoclonal antibodies by injection into mice with subsequent harvest of the spleen for generation of multiple hybridomas. Individual hybridomas were isolated and the antibody produced was screened using dot immunoblot assays. Various concentrations of royalactin were dotted onto the blot with bovine serum albumin (BSA) as a control.

T1 sequence (P02769 25-607 limits assumed): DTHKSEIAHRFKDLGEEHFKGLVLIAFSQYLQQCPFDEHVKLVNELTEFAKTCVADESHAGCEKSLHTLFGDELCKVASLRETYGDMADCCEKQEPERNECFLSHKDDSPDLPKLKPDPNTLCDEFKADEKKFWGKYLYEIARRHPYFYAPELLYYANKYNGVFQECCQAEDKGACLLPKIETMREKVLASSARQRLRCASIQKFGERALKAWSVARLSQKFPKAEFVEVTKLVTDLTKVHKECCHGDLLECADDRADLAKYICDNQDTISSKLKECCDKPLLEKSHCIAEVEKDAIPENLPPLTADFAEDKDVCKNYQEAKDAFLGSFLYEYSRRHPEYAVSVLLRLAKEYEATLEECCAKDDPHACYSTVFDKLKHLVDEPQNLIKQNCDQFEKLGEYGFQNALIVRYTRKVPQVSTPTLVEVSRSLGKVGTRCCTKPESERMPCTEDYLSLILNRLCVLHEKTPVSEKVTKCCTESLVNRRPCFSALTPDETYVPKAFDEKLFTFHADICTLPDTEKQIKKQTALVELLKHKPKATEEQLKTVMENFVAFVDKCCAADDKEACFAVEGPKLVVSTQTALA

B1: monoclonal antibody #19 (4G6C5) (antibody, V domains shown)
VH: VMLVESGGGLVKPGGSLKLSCAASGFTFSRYAMSWNRQTPEKRLEWVATISPGGGYIYYSDSVKGRFTISRDNARNTLYLQMSSLRSEDTAMYYCAGDYVDYWGQGTTLTVSS
VL: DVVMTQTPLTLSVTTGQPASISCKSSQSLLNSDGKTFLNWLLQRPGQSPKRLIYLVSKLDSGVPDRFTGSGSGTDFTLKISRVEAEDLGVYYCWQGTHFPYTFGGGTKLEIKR
notes: Mouse hybridoma monoclonal antibody; also called antibody 4G6C5; hybridoma #19
binding result: no binding (tested: 2 ng)
